The target in one assay is T1, MT1-F (Homo sapiens, UniProt P50281).
T1 construct: expressed in transfected cells
Kind of assay: 125I-labeled TIMP-2 binding assay on transfected CHO-K1 cells. As to the method: FIG. 12: The efficacies of MT1PEX-F on the proteolytic activity and TIMP-2 binding ability of MT1-F expressed on a cell surface are shown. As is shown in FIG. 12 through FIG. 14, CHO-K1 cells were transfected with the expression vectors for MT1-F, MT1PEX-F or MT1Cat-F, or a vector alone (Mock). The cells were then treated with trypsin, and seeded on DQ™-gelatin coated cover slips for proteolytic activity tests (FIG. 13) and in 24-well plates for TIMP-2 binding assays (FIG. 12) and for proMMP-2 activation (FIG. 14). Results are all from the same transfection experiment. […]
Next, to determine if MT1PEX-F affects the catalytic activity of MT1-MMP on the cell surface or not, tests for gelatin degrading activity and binding capacity to TIMP-2 were conducted using cells transfected in the same incubator. […] Transfected cells on the DQ™ gelatin-coated cover slip as shown in FIG. 13 were incubated in a medium at 37° C. for 18 hrs, and the generated fluorescence was analyzed using confocal microscopy. […] MT1-MMP specific binding was calculated by subtracting the datum obtained in the presence of BB-94 (50 μM) from each datum derived from the corresponding experiments. […] DQ™ gelatin is a fluorescence-quenched gelatin, which fluoresces upon proteolytic cleavage. […]

The target in the next assay is T2, MT1-F/NGFR (Homo sapiens, UniProt P04629+P50281).
T2 construct: expressed in transfected cells; host or cells: COS1 cells (pSG5 vector)
Kind of assay: Dimer formation of MT1-F/NGFR chimera on the cell surface (anti-phosphotyrosine PY20 Western blotting, co-transfected COS1 cells). The note with it: for competition in the dimer formation of MT1-F/NGFR (PY20 band intensity): COS1 cells co-transfected with MT1-F/NGFR and the construct (FIG. 23). The format is cell-based. The procedure:
Cell lysate samples were subjected to separation on SDS-PAGE, followed by a transfer of the proteins in the gel to nitrocellulose membranes (Hybond-ECL, Amersham Pharmacia Biotech, Inc.). After blocking with a solution of 10% skim milk dissolved in TBS (20 mM Tris-HCl buffer, pH 7.5 containing 150 mM NaCl), the membrane was exposed to a monoclonal anti-FLAG M2 antibody (3 μg/ml) for detecting FLAG-tagged MT1-MMP and its mutants. In order to visualize the immunoreactive bands, the membrane was further exposed to an alkaline phosphatase-conjugated goat anti-mouse IgG antibody. For the purpose of detecting a phosphotyrosine residue in chimera proteins, a monoclonal anti-phosphotyrosine antibody, PY20 (1 μg/ml) was used.
Cell lysates were subjected to SDS/PAGE, followed by a transfer of the proteins to nitrocellulose membranes (Hybond-ECL, Amersham Pharmacia Biotech, Inc.). MT1-MMP, MT1Cat, MT1-MT4PEX and MT1-F/NGFR were detected with a polyclonal anti-CAT antibody (1:2000), while MT1-MMP, MT1PEX and MT1-F/NGFR with an anti-PEX antibody (222-1D8, 0.5 μg/ml). FLAG-tagged MT1-MMP and its mutants were detected with an anti-FLAG M2 antibody (3 μg/ml). Chimera proteins containing a phosphotyrosine residue were detected with a monoclonal mouse anti-phosphotyrosine antibody, PY20 (ICN Biochemicals, Inc., OH, USA; 1 μg/ml). Immunoreactive bands were visualized with an alkaline phosphatase-conjugated goat anti-mouse IgG or anti-rabbit IgG (Sigma).
NGFR forms a dimer through binding to its ligand. Subsequently, tyrosine residues in the cytoplasmic domain are trans-phosphorylated by its tyrosine kinase (Jing, S. et al., Neuron, 9: 1067-1079, 1992; Lemmon, M. A. et al., Trends Biochem. Sci., 19: 459-463, 1994).
By utilizing the above principle, a chimeric protein is first constructed consisting of the ectodomain of MT1-MMP and the transmembrane (TM) and cytoplasmic (CP) domains of NGFR (FIG. 8) in order to test for direct complex formation. When the ectodomain of this chimeric protein forms a homophilic complex in a similar manner, tyrosine residues in the cytoplasmic domain will be phosphorylated.
It is investigated whether co-expression of MT1PEX-F and MT1-F competes in the dimer formation of MT1-F/NGFR or not. For the test, the expression plasmids for MT1-F/NGFR and MT1PEX-F were co-transfected into COS1 cells.
Next, the expression plasmids for MT1-F/NGFR and FLAG-tagged MT1PEX (MT1PEX-F), MT1Cat (MT1Cat-F), or MT1-F were co-transfected to investigate if the dimer formation of the chimera could be disrupted or not.
A general note: A western blot detects proteins with antibodies after separation by electrophoresis.

Another assay concerns HT1080 cells. Kind of assay: Activation of endogenous proMMP-2 in HT1080 cells (zymography, Western blotting). The format is cell-based, human. As to the method: FIG. 31: In regard to the efficacy of MT1PEX-F on the matrigel invasive action of HT1080 cells, HT1080 cells were transfected with the stable expression plasmids for MT1PEX-F and the empty vector (Mock). Hygromycin resistant cells were collected and re-seeded. The culture medium was changed to a serum-free medium in the presence or absence of BB94, and the cells were further cultured. The culture media and the cell lysates were analyzed by gelatin zymography and Western blotting using an anti-MT1PEX antibody, respectively.
HT1080 cells are known to express MT1-MMP and MMP-2 endogenously. Thus, the efficacy of MT1PEX-F expression on the activation of endogenous proMMF-2 in HT1080 cells was next examined. The cells were transfected with a plasmid for MT1PEX-F or an empty vector bearing the hygromycin-resistant gene. The culture medium from the hygromycin-resistant cells was analyzed for produced MMP-2 by zymography. […] Co-expression of endogenous MT1-MMP and MT1PEX-F clearly indicated the co-localization of both molecules at the edge of the cells (FIG. 32).

For “MT1Cat-F: PEX-deleted FLAG-tagged MT1-MMP (Δ Ile318-Gly535)”, in the assay with MT1-F (CHO-K1 cells expressing the mutant (FIG. 12)), the “TIMP-2 binding capacity as compared to the cells bearing MT1-F” value is “equivalent TIMP-2 binding capacity”. Further, in the assay with MT1-F/NGFR, the “competition in the dimer formation of MT1-F/NGFR (PY20 band intensity)” value was “did not decrease the intensity of the band”.
Consider “MT1PEX-F: Catalytic domain-deleted FLAG-tagged MT1-MMP (Δ Tyr112-Pro312), expressed by transfection”, for which the “decrease in TIMP-2 binding on the cell surface as compared with MT1-F alone” value with MT1-F (CHO-K1 cells co-transfected with MT1-F, 25 nM 125I-TIMP-2, 0° C., 1 hr, BB-94 (50 μM) background subtracted (FIG. 12)) came to 37%. The “decrease of phosphotyrosine signal” value in the assay with MT1-F/NGFR (COS1 cells co-expressing MT1-F/NGFR and Rac1DA (FIG. 24)) was 43%. In addition, in the assay with MT1-F/NGFR (COS1 cells co-transfected with MT1-F/NGFR and MT1PEX-F at indicated DNA ratio (FIG. 10)), the “phosphorylation of MT1-F/NGFR” value is “inhibited depending on the expression level”. In addition, the “competition in the dimer formation of MT1-F/NGFR (PY20 band intensity)” value in the assay with MT1-F/NGFR was “effectively competed”. Moreover, in the assay with MT1-F/NGFR (COS1 cells co-transfected with MT1-F/NGFR, increasing levels of MT1PEX-F expression, PY20 band intensity (FIG. 10)), the “inhibition of the phosphorylation of MT1-F/NGFR” value is reported as at least 90%. Moreover, the “effect on expression and processing of endogenous MT1-MMP” value in the assay on HT1080 cells (HT1080 cell lysates, Western blotting (FIG. 31)) was “did not affect the expression and processing of endogenous MT1-MMP”. In addition, in the assay with HT1080 cells (hygromycin-resistant HT1080 cells, serum-free medium (FIG. 31)), the “activation of endogenous proMMP-2” value was “did not effectively activate proMMP-2”.

These data come from patent publication US20040120954A1, “Regulation of mt1-mmp activity” (priority 2000, published 2004).
